Earlier results as cited in paper PMC8538444.

Target: SP-BN N-terminal saposin-like segment of the SP-B proprotein (Homo sapiens) (UniProt P07988)
Chain of UniProt P07988 (P07988 65-147): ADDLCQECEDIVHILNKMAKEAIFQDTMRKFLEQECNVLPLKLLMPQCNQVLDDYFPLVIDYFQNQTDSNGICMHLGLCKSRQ

For SP-A (from UniProt Q8IWL2), the Kd is listed as 400 nM.
